{"source": "patent US20220406376A1", "about": "(MacroGenics, published 2022)", "binders": {"B1": {"name": "DART-G3 (bispecific antibody, human IgG1, kappa, L234A L235A)", "heavy": "QVQLVQSGAEVKKPGASVKVSCKASGYTFTNYGMNWVRQAPGQGLEWMGWINTNIGEPTYTEEFKGRVTMTRDTSISTAYMELSRLRSDDTAVYYCARDDGYGNRVSYWGQGTLVTVSSASTKGPSVFPLAPSSKSTSGGTAALGCLVKDYFPEPVTVSWNSGALTSGVHTFPAVLQSSGLYSLSSVVTVPSSSLGTQTYICNVNHKPSNTKVDKRVEPKSCDKTHTCPPCPAPEAAGGPSVFLFPPKPKDTLMISRTPEVTCVVVDVSHEDPEVKFNWYVDGVEVHNAKTKPREEQYNSTYRVVSVLTVLHQDWLNGKEYKCKVSNKALPAPIEKTISKAKGQPREPQVYTLPPSREEMTKNQVSLSCAVKGFYPSDIAVEWESNGQPENNYKTTPPVLDSDGSFFLVSKLTVDKSRWQQGNVFSCSVMHEALHNRYTQKSLSLSPGK", "light": "DIQMTQSPSSLSASVGDRVTITCKASQDISNYLSWFQQKPGKAPKTLIYRANRLQSGVPSRFSGSGSGTDFTLTISSLQPEDFATYYCLQHDEFPWTFGQGTKLEIKRTVAAPSVFIFPPSDEQLKSGTASVVCLLNNFYPREAKVQWKVDNALQSGNSQESVTEQDSKDSTYSLSSTLTLSKADYEKHKVYACEVTHQGLSSPVTKSFNRGEC", "chain 1": "QVQLVQSGAEVKKPGASVKVSCKASGYTFTNYGMNWVRQAPGQGLEWMGWINTNIGEPTYTEEFKGRVTMTRDTSISTAYMELSRLRSDDTAVYYCARDDGYGNRVSYWGQGTLVTVSSASTKGPSVFPLAPSSKSTSGGTAALGCLVKDYFPEPVTVSWNSGALTSGVHTFPAVLQSSGLYSLSSVVTVPSSSLGTQTYICNVNHKPSNTKVDKRVEPKSCDKTHTCPPCPAPEAAGGPSVFLFPPKPKDTLMISRTPEVTCVVVDVSHEDPEVKFNWYVDGVEVHNAKTKPREEQYNSTYRVVSVLTVLHQDWLNGKEYKCKVSNKALPAPIEKTISKAKGQPREPQVYTLPPSREEMTKNQVSLWCLVKGFYPSDIAVEWESNGQPENNYKTTPPVLDSDGSFFLYSKLTVDKSRWQQGNVFSCSVMHEALHNHYTQKSLSLSPGGGGSGGGSGGGDIQMTQSPSSLSASVGDRVTITCRPSQDISNYLNWYQQKPDKTVKLLIYYTSRLRSGVPSRFSGSGSGTDFTFTISSLQPEDIATYFCQQGDTLPYTFGQGTKLEIKGGGSGGGGQVQVQLVQSGAEVKKPGASVKVSCKASGYTFTSYWINWVKQAPGQGLEWIGNIYPSDSYTNYNQKFKDKATITADKSTSTAYMELSSLRSEDTAVYYCTRDYGSAYSYSLWGQGTTVTVSSGGCGGGEVAALEKEVAALEKEVAALEKEVAALEK", "chain 2": "DIQMTQSPSSLSASVGDRVTITCRPSQDISNYLNWYQQKPDKTVKLLIYYTSRLRSGVPSRFSGSGSGTDFTFTISSLQPEDIATYFCQQGDTLPYTFGQGTKLEIKGGGSGGGGQVQLVQSGAEVKKPGASVKVSCKASGYTFTSYWINWVKQAPGQGLEWIGNIYPSDSYTNYNQKFKDKATITADKSTSTAYMELSSLRSEDTAVYYCTRDYGSAYSYSLWGQGTTVTVSSGGCGGGKVAALKEKVAALKEKVAALKEKVAALKE", "notes": "also called optimized DART-G3"}, "B2": {"name": "DART-G2 (bispecific antibody, human IgG1, kappa, L234A L235A)", "heavy": "B1 heavy", "light": "B1 light", "chain 1": "B1 chain 1 with Y682M, L684T", "chain 2": "B1 chain 2 with Y221M, L223T", "notes": "also called optimized DART-G2"}, "B3": {"name": "DART-G4 (bispecific antibody, human IgG1, kappa, L234A L235A)", "heavy": "B1 heavy", "light": "B1 light", "chain 1": "B1 chain 1 with A679S, S683N, L684V", "chain 2": "B1 chain 2 with A218S, S222N, L223V", "notes": "also called optimized DART-G4"}}, "note": "Positions count from the first letter of the chain named.", "data": [{"molecular_target": "T1, CD137 on the surface of cells (activated human T cells; engineered CHO cells) (human, UniProt Q07011 24-255)", "T1 construct": "whole, on cells; also called human CD137; cell surface expressed CD137", "T1 sequence (Q07011 24-255, change not shown)": "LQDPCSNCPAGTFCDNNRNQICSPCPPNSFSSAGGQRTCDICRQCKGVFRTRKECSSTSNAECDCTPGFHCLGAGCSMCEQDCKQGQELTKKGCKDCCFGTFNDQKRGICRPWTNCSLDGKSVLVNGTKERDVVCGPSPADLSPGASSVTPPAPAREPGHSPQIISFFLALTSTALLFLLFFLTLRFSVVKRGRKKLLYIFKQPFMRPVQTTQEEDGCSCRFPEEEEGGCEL", "experiment": "flow cytometry on activated CD8+ T cells (donor D53781, CD8 FITC), anti-hFc APC MFI", "units": {"EC50 (read off the curve)": "µg/mL"}, "values": [{"binder": "B1", "EC50 (read off the curve)": "~0.02"}, {"binder": "B2", "EC50 (read off the curve)": "~0.02"}, {"binder": "B3", "EC50 (read off the curve)": "~0.02"}]}, {"molecular_target": "T2, extracellular portion of human CD137 fused to a histidine-containing peptide (human, UniProt Q07011 24-186)", "T2 construct": "extracellular domain; also called huCD137; His-tagged soluble human CD137", "experiment": "SPR (BIACORE); molecule captured on anti-human Fc; huCD137 6.25-100 nM; 1:1 Langmuir", "method": "(§1) The amino acid sequences of these clones were incorporated into the 5 chain diabody DART-G to yield optimized DART-G molecules (designated as DART-G1, DART-G2; DART-G3, and DART-G4). The binding affinity of DART-G2, DART-G3, and DART-G4 were evaluated via BIAcore (Table 11). For such evaluation, His-tagged soluble human CD137 (huCD137) or cynomolgus monkey CD137 (cynoCD137) (containing an extracellular portion of human or cynomolgus monkey CD137 fused to a histidine-containing peptide) was passed over a surface coated with immobilized antibody. Briefly, each test molecule was captured onto an F(ab)₂ goat-anti-human Fc-coated surface and then incubated in the presence of different concentrations (6.25-100 nM) of huCD137 or cynoCD137. The kinetics of binding were determined via BIACORE® analysis binding (normalized 1:1 Langmuir binding model).", "units": {"Kd": "nM", "koff": "s⁻¹", "kon": "M⁻¹ s⁻¹"}, "values": [{"binder": "B1", "Kd": 64, "koff": 0.014, "kon": 220000}, {"binder": "B2", "Kd": 60, "koff": 0.021, "kon": 350000}, {"binder": "B3", "Kd": 28, "koff": 0.0087, "kon": 310000}]}, {"molecular_target": "T3, HER2/neu on the surface of target cells (N87, JIMT-1, MCF-7, MDA-MB231) (UniProt P04626 23-1255, limits assumed)", "T3 construct": "whole, on cells", "experiment": "flow cytometry on MCF-7 cells, anti-hFc APC MFI", "units": {"EC50 (read off the curve)": "nM"}, "values": [{"binder": "B1", "EC50 (read off the curve)": "~0.09"}, {"binder": "B2", "EC50 (read off the curve)": "~0.09"}, {"binder": "B3", "EC50 (read off the curve)": "~0.09"}]}, {"molecular_target": "T3, HER2/neu on the surface of target cells …", "experiment": "flow cytometry on JIMT-1 cells, anti-hFc APC MFI", "units": {"EC50 (read off the curve)": "nM"}, "values": [{"binder": "B1", "EC50 (read off the curve)": "~0.2"}, {"binder": "B2", "EC50 (read off the curve)": "~0.2"}, {"binder": "B3", "EC50 (read off the curve)": "~0.2"}]}, {"molecular_target": "T3, HER2/neu on the surface of target cells …", "experiment": "flow cytometry on N87 cells, anti-hFc APC MFI", "units": {"EC50 (read off the curve)": "nM"}, "values": [{"binder": "B1", "EC50 (read off the curve)": "~0.5"}, {"binder": "B2", "EC50 (read off the curve)": "~0.5"}, {"binder": "B3", "EC50 (read off the curve)": "~0.5"}]}, {"molecular_target": "T1, CD137 on the surface of cells …", "experiment": "flow cytometry on CD137-expressing CHO cells (CHO/137), anti-hFc APC MFI", "units": {"EC50 (read off the curve)": "µg/mL"}, "values": [{"binder": "B1", "EC50 (read off the curve)": "~0.02"}, {"binder": "B2", "EC50 (read off the curve)": "~0.02"}, {"binder": "B3", "EC50 (read off the curve)": "~0.02"}]}, {"molecular_target": "T1, CD137 on the surface of cells …", "experiment": "flow cytometry on activated pan T cells (donor D46433, CD8 PE), anti-hFc APC MFI", "units": {"EC50 (read off the curve)": "nM"}, "values": [{"binder": "B1", "EC50 (read off the curve)": "~0.1"}, {"binder": "B2", "EC50 (read off the curve)": "~0.1"}, {"binder": "B3", "EC50 (read off the curve)": "~0.08"}]}, {"molecular_target": "T4, extracellular portion of cynomolgus monkey CD137 fused to a histidine-containing peptide (cynomolgus monkey, UniProt A9YYE7 24-186)", "T4 construct": "extracellular domain; also called cynoCD137", "T4 sequence": "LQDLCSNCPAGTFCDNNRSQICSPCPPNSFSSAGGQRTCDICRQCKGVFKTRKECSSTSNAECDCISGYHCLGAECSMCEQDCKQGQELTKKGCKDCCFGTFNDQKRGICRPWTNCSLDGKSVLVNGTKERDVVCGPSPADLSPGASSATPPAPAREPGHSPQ", "experiment": "SPR (BIACORE); molecule captured on anti-human Fc; cynoCD137 6.25-100 nM; column head ×10^-4 applied as printed", "method": "as §1", "units": {"koff": "s⁻¹"}, "values": [{"binder": "B1", "koff": 0.018}, {"binder": "B2", "koff": 0.025}, {"binder": "B3", "koff": 0.014}]}, {"molecular_target": "T4, extracellular portion of cynomolgus …", "experiment": "SPR (BIACORE); molecule captured on anti-human Fc; cynoCD137 6.25-100 nM; 1:1 Langmuir", "method": "as §1", "units": {"Kd": "nM", "kon": "M⁻¹ s⁻¹"}, "values": [{"binder": "B1", "Kd": 78, "kon": 230000}, {"binder": "B2", "Kd": 64, "kon": 390000}, {"binder": "B3", "Kd": 40, "kon": 350000}]}]}
